Measured values taken from the supplement of paper PMC6757056.
± gives the standard deviation of the averaged measurements.

B1: library; a variant is named by its letters at N, in order (parent)
chain: GCUGUCACCGGUGCUUGGUACGUUAUAUUCAGCCGGUCUGAUGAGUCUNNNNNNAGACGAAACAGC

How the values were obtained:
[1] = variants of: B1; assay: normalized RNA/DNA level without ligand (relative to sTRSVctl = 100) (log10 (% of sTRSVctl)); HEK293T overexpressing SLC46A1; higher = less ribozyme self-cleavage, higher mRNA level; settings: without (6R,S)-folinic acid; ligand present: no
Summary of the method: (§1)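 Ribozyme switch library plasmids linked to reporters were introduced into HEK293T cells at 4 µg per 6-well well, with ligand, if any, added 1 h before. Total RNA was extracted with EDTA 72 h later, reverse-transcribed, amplified, barcoded and sequenced. RNA level was computed from RNA over DNA reads relative to a spiked-in non-cleaving sequence or the top sequences, then scaled and log-transformed. The top set was 25 sequences, values were ×100 and log10, and the cutoff was ≥100 DNA reads.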

[2] = variants of: B1; assay: normalized RNA/DNA level with ligand (relative to sTRSVctl = 100) (log10 (% of sTRSVctl)); HEK293T overexpressing SLC46A1; ligand concentration (+) RNA-Seq: 6 mM; higher = less ribozyme self-cleavage, higher mRNA level; settings: with (6R,S)-folinic acid; ligand present: yes
Summary of the method: as §1

Variant	normalized RNA/DNA level without ligand (log10) [1]	normalized RNA/DNA level with ligand (log10) [2]
GCUGUCACCGGUGCUUGGUACGUUAUAUUCAGCCGGUCUGAUGAGUCUAUGUGCAGACGAAACAGC [AUGUGC]	1.97 ± 0.021	1.981 ± 0.018
GCUGUCACCGGUGCUUGGUACGUUAUAUUCAGCCGGUCUGAUGAGUCUAUGUGAAGACGAAACAGC [AUGUGA]	1.944 ± 0.014	2.014 ± 0.019
GCUGUCACCGGUGCUUGGUACGUUAUAUUCAGCCGGUCUGAUGAGUCUGUGGUAAGACGAAACAGC [GUGGUA]	1.913 ± 0.0048	1.97 ± 0.019
GCUGUCACCGGUGCUUGGUACGUUAUAUUCAGCCGGUCUGAUGAGUCUGUGGUCAGACGAAACAGC [GUGGUC]	2.02 ± 0.023	2 ± 0.029
GCUGUCACCGGUGCUUGGUACGUUAUAUUCAGCCGGUCUGAUGAGUCUGUGUCCAGACGAAACAGC [GUGUCC]	1.97 ± 0.011	1.99 ± 0.034
GCUGUCACCGGUGCUUGGUACGUUAUAUUCAGCCGGUCUGAUGAGUCUGUGUCUAGACGAAACAGC [GUGUCU]	1.982 ± 0.0041	1.98 ± 0.045
GCUGUCACCGGUGCUUGGUACGUUAUAUUCAGCCGGUCUGAUGAGUCUGUGUCGAGACGAAACAGC [GUGUCG]	2.006 ± 0.0093	2.06 ± 0.037
GCUGUCACCGGUGCUUGGUACGUUAUAUUCAGCCGGUCUGAUGAGUCUUUGUAAAGACGAAACAGC [UUGUAA]	1.943 ± 0.011	2.003 ± 0.016
GCUGUCACCGGUGCUUGGUACGUUAUAUUCAGCCGGUCUGAUGAGUCUUUGUACAGACGAAACAGC [UUGUAC]	1.9902 ± 0.00038	2.02 ± 0.045
GCUGUCACCGGUGCUUGGUACGUUAUAUUCAGCCGGUCUGAUGAGUCUAUGUCAAGACGAAACAGC [AUGUCA]	1.979 ± 0.0033	2.01 ± 0.016
GCUGUCACCGGUGCUUGGUACGUUAUAUUCAGCCGGUCUGAUGAGUCUAUGUCGAGACGAAACAGC [AUGUCG]	1.93 ± 0.0088	1.99 ± 0.027
GCUGUCACCGGUGCUUGGUACGUUAUAUUCAGCCGGUCUGAUGAGUCUAUGUCCAGACGAAACAGC [AUGUCC]	2.04 ± 0.026	2.0107 ± 0.0015
GCUGUCACCGGUGCUUGGUACGUUAUAUUCAGCCGGUCUGAUGAGUCUAUGUCUAGACGAAACAGC [AUGUCU]	1.993 ± 0.017	1.99 ± 0.02
GCUGUCACCGGUGCUUGGUACGUUAUAUUCAGCCGGUCUGAUGAGUCUGUGUAUAGACGAAACAGC [GUGUAU]	1.962 ± 0.0048	2.01 ± 0.022
GCUGUCACCGGUGCUUGGUACGUUAUAUUCAGCCGGUCUGAUGAGUCUUUGGUUAGACGAAACAGC [UUGGUU]	2.014 ± 0.0096	2.052 ± 0.019
GCUGUCACCGGUGCUUGGUACGUUAUAUUCAGCCGGUCUGAUGAGUCUUUGGUAAGACGAAACAGC [UUGGUA]	1.92 ± 0.021	1.999 ± 0.014
GCUGUCACCGGUGCUUGGUACGUUAUAUUCAGCCGGUCUGAUGAGUCUUUGGUCAGACGAAACAGC [UUGGUC]	2.047 ± 0.0021	2.041 ± 0.003
GCUGUCACCGGUGCUUGGUACGUUAUAUUCAGCCGGUCUGAUGAGUCUAUGGUCAGACGAAACAGC [AUGGUC]	2.055 ± 0.0035	2.04 ± 0.029
GCUGUCACCGGUGCUUGGUACGUUAUAUUCAGCCGGUCUGAUGAGUCUCUGGUAAGACGAAACAGC [CUGGUA]	1.95 ± 0.023	1.98 ± 0.034
GCUGUCACCGGUGCUUGGUACGUUAUAUUCAGCCGGUCUGAUGAGUCUCUGGUUAGACGAAACAGC [CUGGUU]	1.97 ± 0.04	1.99 ± 0.046
